The results in this text go back to article PMC4510971.

Common to all, as to test: ITC; 0.450 mM UBN1 injected into a cell with 30 μM H3/H4, 22 °C; 20 mM HEPES pH 7.5, 750 mM NaCl, 1 mM TCEP
In general terms: ITC needs no label: the signal is the heat of the interaction.

Experiment [1] addresses Asf1(1–169)/H3.3(60–135)/H4(20–102) (S. cerevisiae | X. laevis) (UniProt P32447).
The target of experiment [2] is H3.3(G90M)/H4 (human | X. laevis) (UniProt P62799).
Experiment [3] deals with H3.3(SAVM)/H4 (human | X. laevis) (UniProt P84243).

UBN1(122–148) peptide, sequence (Q9NPG3 122-148): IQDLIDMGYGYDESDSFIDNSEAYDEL

On to “UBN1(122–148) peptide (from UniProt Q9NPG3 122-148)”, for which the Kd (in general, the constant that tells how readily two partners part at equilibrium) in experiment [1] came out at 110 µM. Also, the fold decrease in binding relative to H3.3 WT in experiment [2] and in experiment [3] was 3 fold in each case.
